Binding result and Kd data for 3 molecules are collected here from publication PMC3175489.

For series [1], the target named is T1, SOX2 (human, UniProt P48431 1-317). Nature of the series: competition.
The target in series [2] is NANOG (human, UniProt Q9H9S0 1-305). In words: Ni-NTA filter microplate fluorescent DNA binding.
Series [3] addresses T1, SOX2. Nature of the series: Ni-NTA filter microplate fluorescent DNA binding.

T1 sequence (P48431 whole entry): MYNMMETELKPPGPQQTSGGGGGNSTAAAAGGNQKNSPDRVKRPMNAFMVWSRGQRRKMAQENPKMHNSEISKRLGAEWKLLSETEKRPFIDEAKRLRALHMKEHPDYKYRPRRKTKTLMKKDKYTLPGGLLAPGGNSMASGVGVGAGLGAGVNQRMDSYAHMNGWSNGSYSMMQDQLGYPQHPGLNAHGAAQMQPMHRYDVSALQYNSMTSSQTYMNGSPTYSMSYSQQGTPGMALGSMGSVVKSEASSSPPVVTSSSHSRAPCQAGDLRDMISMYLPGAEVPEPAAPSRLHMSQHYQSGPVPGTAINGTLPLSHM
NANOG, sequence (Q9H9S0 whole entry): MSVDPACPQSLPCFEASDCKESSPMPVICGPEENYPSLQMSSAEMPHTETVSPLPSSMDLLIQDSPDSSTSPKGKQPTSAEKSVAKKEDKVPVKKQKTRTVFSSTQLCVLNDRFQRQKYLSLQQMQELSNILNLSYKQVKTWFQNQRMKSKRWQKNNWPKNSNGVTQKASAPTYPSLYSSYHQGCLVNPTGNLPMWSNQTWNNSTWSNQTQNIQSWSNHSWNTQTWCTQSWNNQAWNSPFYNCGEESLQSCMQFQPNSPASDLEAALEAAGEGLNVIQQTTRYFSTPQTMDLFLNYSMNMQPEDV

B1: nonsense probe (dsDNA)
DNA 1: GCCCGATTACTCTGTCCT
DNA 2: AGGACAGAGTAATCGGGC
As to B1, the binding result in series [1] is given as “no binding”.

B2: NANOG cognate probe (Tcf3 enhancer) (dsDNA)
DNA 1: ACCTGTTAATGGGAGCGC
DNA 2: GCGCTCCCATTAACAGGT
One may read the Kd as the equilibrium constant for the complex coming apart. Higher therefore signals a looser complex. With B2, the Kd in series [2] turned out to be 44 ± 6 nM.

B3: SOX2 cognate probe (CR4 POU5F1) (dsDNA)
DNA 1: GCAGAGGACAAAGGTGCCGTG
DNA 2: CACGGCACCTTTGTCCTCTGC
In series [3], B3 yielded a Kd of 54.2 ± 9 nM.
